The target in assay [1] is SARS-CoV-2突变株B.1.617.2株假病毒 (刺突蛋白) (SARS-CoV-2). The assay is described as follows: cell-based or functional assay.
For assay [2], the target named is SARS-CoV-2突变株B.1.1.529株假病毒 (刺突蛋白) (SARS-CoV-2). The assay is described as follows: cell-based or functional assay.

B1: 单克隆抗体8H9 (antibody, V domains shown)
VH: QIQLVQSGPELKKPGETVKISCKASGYTFTTYGMSWVKQTPGKGLKWMGWINTYSGVPTYADDFKGRFAFSLETSASTASLQINNLKNEDTATYFCARYDPTAPDYAMDYWGQGTSVTVSS
VL: NIVMTQSPKSMSMSVGERVTLSCKASENVGTYVSWYQQKPEQSPKLLIYGASNRYTGVPDRFTGSGSATDFTLTISSVQAEDLADYHCGQSYIYPLTFGAGTNLELK
Turning to B1, the 假病毒中和活性IC50 in assay [1] was 56.6 ng/mL; in assay [2] it was 92.9 ng/mL.

B2: 单克隆抗体9D4 (antibody, V domains shown)
VH: QVHLQQSGPELVKPGASVKISCKSSGYALTDYYINWVKQRPGQGLEWIGWIFPGNDYTYFNEKFKDKATLTLDKSSRTAYMLLSSLTTEDSAVYFCARYGDGNYVYFDYWGQGTSLTVSS
VL: ETVLIQSPALMAASPGEKVTITCSVSSSISSSNLHWYQQKSGNSPKPWIYGTSNLASGVPVRFSGSGSGTSYSLTISSMEAEDAATYYCQQWSSYPLTFGAGTKLELK
As to B2, the 假病毒中和活性IC50 in assay [1] amounted to 155 ng/mL; in assay [2], 188 ng/mL.

Values taken from patent publication CN114790240A (UNIV ZHENGZHOU; UNIV HENAN AGRICULTURAL, dated 2022).
